Publication PMC5812564

What was measured:
[1] = target: S100A1 (human); assay: other fluorescence titration; intrinsic tryptophan fluorescence of 3.50 μM S100A1, S100B added from 0 to 42 μM in steps of 2 μM; excitation 295 nm, emission read at 351 nm
[2] = target: S100A1 (human); assay: NMR titration; 1H-15N HSQC, 15N-labelled protein with the unlabelled partner added, each pair in both directions, molar ratios 1:0 and 1:1 (1:0.66 and 1:1 for Kd); 25 °C; 20 mM Tris, 5 mM CaCl2, 5 mM DTT, 50 mM (NH4)2SO4, pH 7.2; Kd as the mean over selected residues
[3] = target: S100A1 as used in the titrations with the RAGE V domain (mutant-S100A1 (C85S) by the introduction) (human); assay: as above
[4] = target: RAGE V domain (UniProt Q15109)

## S100B (natural protein)
[1]
  Kd: 1.9 µM
[2]
  Kd: 5.9 µM

## RAGE V domain (from UniProt Q15109 24-128) (domain or fragment)
[3]
  Kd: 6.13 µM

## S100A1 (natural protein)
[4]
  WST-1 proliferation assay, serum-starved SW480 cells (RAGE highly expressed) treated for 48 h with 10, 50 and 100 nM S100A1; viable cell count against the serum-free control: 1.53 fold
  WST-1 proliferation assay, serum-starved SW480 cells treated for 48 h with 100 nM S100A1 and 100 nM S100B; viable cell count against the serum-free control: 1.39 fold
